# Measured values reported in patent US8252764B2, “Compositions and methods of use of targeting peptides against placenta and adipose tissues” (priority 2000, dated 2012).
# Read-outs that look alike come from different tables or passages of the source.
# Legend:
# [1] = tested on: placenta
# Description: The CARAC peptide (SEQ ID NO:12), an adipose targeting peptide (FE, TREVHRS, SEQ ID NO:13) or fd-tet phage were used as non-placental targeting controls.
# [2] = tested on: white adipose vasculature; assay: Peptide localization in white fat; format: in vivo, mouse; conditions: intravenous
# Description: (A) and (B) Anti-phage immunohistochemistry in paraffin sections of subcutaneous white fat from leptin-deficient mice intravenously injected 6 hr prior to tissue processing. (C) and (D) Peptide-FITC immunofluorescence in paraffin sections of subcutaneous white fat from leptin-deficient mice intravenously injected 6 hr prior to tissue processing. […] (SEQ ID NO:22) linked to FITC peptide, or (D) control. CARAC (SEQ ID NO:12) linked to FITC peptide. […] Bar: 10 μm.
# (A), (C) and (E) Peptide-FITC immunofluorescence or (B), (D) and (F) lectin-rhodamine immunofluorescence in blood vessels of (A), (B), (E) and (F) subcutaneous white fat or (C) and (D) pancreas controls detected in paraffin-sectioned tissues from c57bl/6 mice intravenously co-injected 5 min prior to tissue processing. […] (SEQ ID NO:22) linked to FITC peptide and lectin-rhodamine; or (E) and (F) control CARAC (SEQ ID NO:12) linked to FITC peptide and lectin-rhodamine; (B), (D) and (F) Arrows show endothelium marked with lectin. […] Bar: 10 μm.
# Staining of formalin-fixed, paraffin-embedded mouse tissue sections was performed (Pasqualini & Rouslahti, 1996; Pasqualini et al., 2000). For phage-peptide immunolocalization, 10^10 TU of [sequence] […] Apoptosis was detected using standard TUNEL immunohistochemistry and an HRP-conjugated antibody. […]
# [3] = tested on: mouse villous yolk sac (vys); assay: Peptide localization in placenta (immunohistochemistry, FITC immunofluorescence); format: in vivo; conditions: 18 dpc pregnant mice, intravenous, 6 h
# Procedure: Fusion and Recombinant Peptides Carboxyfluorescein (FITC)-conjugated [sequence] […] The FITC-peptide stocks were made by dissolving lyophilized peptides in DMSO to a concentration of 20 mM, after which the peptides were diluted to 1 mM with PBS (phosphate buffered saline) and aliquots were frozen until use. The [sequence] (SEQ ID NO:144) peptide and an unrelated control peptide, [sequence] (SEQ ID NO:87), fused in-frame with GST at the amino-terminus were purified to approximately 90% purity using the BugBuster GST Bind Kit (Novagen, Madison, Wis.). Purified peptides were buffer-exchanged into PBS using Centricon PL-10 columns (Millipore, Bedford, Mass.) and the aliquots were frozen until use. […]
# Peptide Localization in Tissues Immunohistochemistry on sections of formalin-fixed, paraffin-embedded mouse tissue was performed as described (Pasqualini et al., 2000; Pasqualini and Ruoslahti, 1996): For phage-peptide immunolocalization, a rabbit anti-fd phage antibody (Sigma Chemicals, St. Louis, Mo.) was used at 1:1,000 dilution and detected with a secondary horseradish peroxidase (HRP)-conjugated antibody. For GST-peptide immunolocalization, a goat anti-GST antibody (Amersham, Piscataway, N.J.) was used at 1:1,000 dilution and detected with a secondary alkaline phosphatase (AP)-conjugated antibody. […]
# [4] = tested on: MDA-MB-435-derived tumor xenografts; assay: In vivo tumor homing of APA-binding phage; parameters: species or system mouse
# Procedure: FIG. 31. APA-binding phage specifically bind tumors. Equal amounts of phage were injected into the tail veins of mice bearing MDA-MB-435-derived tumors and phage were recovered after perfusion. Mean values for phage recovered from the tumor or control tissue (brain) and the standard error from triplicate platings are shown.
# MDA-MB-435-derived tumor xenografts were established in female nude mice 2 months old (Jackson Labs, Bar Harbor, Me.). Mice were anesthetized with Avertin and injected intravenously through the tail vein with 10^9 TU of the phage in a 200 μl volume of DMEM. The phage were allowed to circulate for 5 min, and the animals were perfused through the heart with 5 ml of DMEM. The tumor and brain were dissected from each mouse, weighed, and equal amounts of tissue were homogenized. The tissue homogenates were washed three times with ice-cold DMEM containing a proteinase inhibitor cocktail and 0.1% BSA. Bound phage were rescued and counted as described for cell panning. Fd-tet phage was injected at the same input as a control. The experiment was repeated twice. In parallel, part of the same tissue samples were fixed in Bouin solution, and imbedded in paraffin for preparation of tissue sections. An antibody to M-13 phage (Amersham-Pharmacia) was used for the staining.
# [5] = tested on: placenta; assay: Peptide embryotoxicity in pregnant mice; format: in vivo, mouse
# Description: FIG. 7. TPKTSVT (SEQ ID NO:5) peptide inhibits mouse pregnancy and is teratogenic. (A) Pregnancy courses (representative from 5 independent experiments) in mice subcutaneously injected with the indicated phage or peptides were monitored by daily weighing of the mice upon each injection (arrows). (B) Appearance of a normally developed 20 dpc embryo (left) for control GST fusion treatment compared to a representative 20 dpc embryo (right) resulting from TPKTSVT (SEQ ID NO:5) linked to GST fusion treatment. A severely teratogenic phenotype is observed with the placental targeting fusion peptide. (C) and […]) Hematoxylin/eosin staining of 20 dpc paraffin-embedded placentas derived from mice injected for 7 days with (C) control GST fusion or (D) the TPKTSVT (SEQ ID NO:5) linked to GST fusion peptide. Note hemorrhage (black asterisks), necrosis (white asterisks), and fibrosis (arrowheads). Bar: 500 μm (50 μm for insets).
# Peptide Embryotoxicity For peptide embryotoxicity studies, agents were injected at the following daily doses: GST-peptides 0.1 mg (˜3 nMoles), FITC-peptides 50 μg (˜30 nMoles),and phage-peptides 10″ TU. All agents were dissolved in PBS. Mice were injected subcutaneously in the back (5-10 injections per course).
# The phage or fusion peptides were subcutaneously injected and the progression of pregnancy was compared with mice injected with control phage, control peptides, or saline. Multiple injections of the TPKTSVT (SEQ ID NO:5) peptide were administered, starting at mid-pregnancy (˜12 days postconception, dpc) in doses non-toxic to the mother.
# [6] = tested on: placental transporter; assay: Phage recovery from embryos (materno-fetal transfer); format: in vivo, mouse; conditions: excess of co-injected peptide
# Procedure: FIG. 4. The TPKTSVT (SEQ ID NO:5) peptide specifically binds a placental transporter. (A) Recovery of indicated phage from embryos carried by 18 dpc pregnant mice intravenously injected (tail vein) with 10^10 TU of the indicated phage 6 h prior to phage recovery or immunohistochemistry. […] TPKTSVT (SEQ ID NO:5) phage were administered alone (dark cross-hatched) or co-administered with control-GST (black) or TPKTSVT (SEQ ID NO:5) linked to GST (white bar). Shown are mean+/−SEM (standard error) from different embryos. (B-D) Anti-phage IMP immunohistochemistry (arrowheads) in paraffin sections of the vys from the corresponding mice, as indicated. Asterisks mark embryonic capillaries. Bar: 20 μm.
# Phage Recovery Mouse placentas and embryonic livers were individually weighed, ground with a glass Dounce homogenizer and suspended in 1 ml of Dulbecco's Modified Eagle's Medium (DMEM) containing proteinase inhibitors (DMEM-prin—1 mM PMSF, 20 μg/ml aprotinin, and 1 μg/ml leupeptin). The suspension was vortexed and washed three times with DMEM-prin. […]
# The TPKTSVT (SEQ ID NO:5) Peptide Binds to a Placental Transporter The TPKTSVT (SEQ ID NO:5) peptide localizes to the vys (FIG. 3), which is the tissue primarily responsible for materno-fetal transport in mice. […] Either TPKTSVT (SEQ ID NO:5)-phage or control phage were injected into pregnant mice and the recovery of phage from embryos was determined.
# [7] = tested on: HUVEC cells; assay: Apoptosis assay in HUVEC (propidium iodide, chromatin fragmentation); format: cell-based, human; conditions: 10^6 HUVEC, 15 μM, 2-4 hours
# Procedure: FIG. 26. Penetratin peptide chimera binding to the β5 cytoplasmic domain induces programmed cell death. 10^6 HUVEC cells were harvested in complete media and 15 μM penetratin peptide chimeras were added to the cells. […] (a) Profile obtained with starved cells after 24 h. (b) Confluent cells in complete media. (c) 15 μM of penetratin after four hours. (d) 15 μM of VISY-penetratin chimera after four hours.
# FIG. 30. Chimeric peptide containing VISY peptide linked to penetratin (antennapedia) induces apoptosis. VISY induced apoptosis was inhibited by addition of a caspase inhibitor (zVAD).
# Approximately 1×10^6 cells were harvested in complete media and 15 AM of peptide added for 4, 8, or 12 h. The cellswere then washed in PBS and resuspended in 0.5 ml propidium iodide solution (50 μg/ml PI, 0.1% Triton X-100, 0.1% sodium citrate). After a 24-h incubation at 4° C., cells were counted with a XL Coulter (Coulter Corporation) with a 488-nm laser; 12,000 cells were counted for each histogram, and cell cycle distributions were analyzed with Multicycle program.
# Approximately 1×10^6 cells were harvested in complete medium, and 15 μM of peptide was added for 4, 8, or 12 hours. The cells were then washed in PBS and resuspended in 0.5 ml propidium iodide solution (50 μg/ml PI, 0.1% Triton X-100, 0.1% sodium citrate). After a 24-h incubation at 4° C., the cells were counted with an XL Coulter (Coulter Corporation) with a 488 nm laser; 12,000 cells were counted for each histogram, and cell cycle distributions were analyzed with the Multicycle program.
# 10^6 HUVEC were treated with 15 μM of VISY antennapedia (penetratin) chimera or 15 μM of antennapedia peptide (pentratin) alone for 2-4 hours and chromatin fragmentation was analyzed by electrophoresis in an agarose gel.
# [8] = biological target: T1, β5 integrin (Homo sapiens, UniProt P18084); assay: Annexin V binding to GST-β5 integrin cytoplasmic domain (ELISA, competition)
# T1 construct: Plates were coated with GST fusion proteins of the cytoplasmic domains of various integrins
# T1 sequence (P18084 743-799 limits assumed): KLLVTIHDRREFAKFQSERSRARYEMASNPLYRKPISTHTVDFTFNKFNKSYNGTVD
# Procedure: FIG. 29A. Competitive binding of Annexin V to β5 integrin with VISY peptide. Binding assays were performed by ELISA.
# Competitive binding assays were performed to examine the binding of Annexin V to β5 integrin and the effect of the VISY peptide. Plates were coated with GST fusion proteins of the cytoplasmic domains of various integrins and Annexin V was added to the plates. Binding of Annexin V was determined using anti-Annexin V antibodies. […] Calcium was used because Annexin V activity has been reported to be modulated by calcium. Binding of Annexin V to GST-β5 was blocked by addition of the VISY peptide (FIG. 29A).
# A reciprocal study was performed, using Annexin V to coat plates and adding GST fusion proteins of integrin cytoplasmic domains. Binding was assessed using anti-GST fusion protein antibodies. […] In some studies, calcium ion appeared to interfere with the binding interaction between GST-β5 and Annexin V, with decreased binding observed in the presence of calcium (not shown).
# [9] = tested on: mouse spleen; assay: Testing Fab clones in vivo with BRASIL; conditions: 5 minutes circulation
# [10] = tested on: mouse spleen cells; assay: Testing Fab clones in vitro using BRASIL; format: cell-based; conditions: for binding to mouse spleen cells compared to Fd-tet control: BRASIL, FIG. 13; for binding to mouse spleen cells compared to NPC-3TT: FIG. 14
# Procedure: FIG. 13. Spleen targeting in vitro using BRASIL. Binding of Fab clones #2, #6, #10, #12 and control Fab clone NPC-3TT were directly compared to each other.
# A singe cell suspension was prepared from two mouse spleens. The suspension was divided into five tubes and incubated on ice with 3×10^9 TU of Fab clones #2, #6, #10, #12 and 2×10^9 TU tet-phage. Phage bound to mouse spleen cells were recovered by BRASIL. 200 μl of log phase ER2537 E.coli was infected with the pellet and serial dilutions were plated on LB/carbenicillin and LB/tetracycline plates for assessment of phage binding. Fd-tet was used as an internal control to normalize all the phage homing experiments.
# [11] = FITC conjugates-I, 1 mouse iv (predominantly) or ip ~every other day, day 1-day 18, 9 times, Total 450 mM (~450 μg)
# [12] = FITC conjugates-II, 1 mouse sc (predominantly) or iv ~every other day, day 4-day 17, 10 times, Total 1M (~1 mg)
molecule,measurement,setting,value
CARAC-FITC: FITC-conjugated control peptide CARAC (SEQ ID NO:12),Peptide Effect on Embryo,[1]; [11],No effect
same,Pregnancy Outcome,[1]; [11],"Delivery: 18 d, 5 normal pups"
same,Peptide Effect on Embryo,[1]; [12],Slight toxicity?
same,Pregnancy Outcome,[1]; [12],"Delivery: 20 d, 5 pups, 1-dead"
same,localization in white fat of wild-type mice,"[2]; C57BL/6 (leptin+/+) mice, co-injected lectin-rhodamine",not detectable in white fat vasculature
same,localization in white fat of ob/ob mice,[2]; leptin-deficient mice,undetectable in adipose tissue
same,localization in placenta,[3],not detectable in the placenta
CPKVCPRECESNC,anti-M13 immunostaining on tissue sections,[4]; not shown,Strong phage staining was apparent in tumor vasculature but not in normal vasculature
same,phage enrichment in tumor xenografts compared to brain tissue,"[4]; nude mice, 10^9 TU iv, 5 min",4 fold
TPKTSVT [placenta targeting peptide],toxicity to the mother,[5]; data not shown,no signs of peptide toxicity to the mother were observed
same,histopathological examination of the placentas,[5]; seven days of peptide administration,"massive dilation of blood vessels and intraplacental bleeding, as well as widespread hemorrhagic necrosis"
same,effect on materno-fetal transfer / vys uptake of TPKTSVT-phage on co-injection,[6],blocked
VVISYSMPD,induction of apoptosis (chromatin fragmentation),[7],Neither VISY nor penetratin alone induced apoptosis
same,inhibition of Annexin V binding to GST-β5,[8]; in the absence of calcium,45%
same,inhibition of Annexin V binding to GST-β5,[8]; in the presence of calcium,67%
Fab clone #12: chicken anti-mouse spleen Fab phage clone selected by BRASIL (protein) ANQPWPPLTLDESGGGLQTPGGALSLVCKASGFTMSSYDMFWVRQAPGKGLEFVAGISSSGSSTEYGAAVKGRATISRDNGQSTVRLQLNNLRAED,binding / localization to spleen compared to Fd-tet phage,[9],did not exhibit significantly elevated binding to mouse spleen
same,binding to mouse spleen cells compared to Fd-tet control,[10],selective binding to mouse spleen cells
same,binding to mouse spleen cells compared to NPC-3TT,[10],only slightly higher than the binding of phage NPC-3TT
Fab clone #6: chicken anti-mouse spleen Fab phage clone selected by BRASIL (protein) CQPAMAAVTLDESGGGLQTPGGTLSLVCKASGISIGYGMNWVRQAPGKGLEYVASISGDGNFAHYGAPVKGRATISRDDGQNTVTLQLNNLR,binding / localization to spleen compared to Fd-tet phage,[9],many-fold increased binding to spleen
same,binding to mouse spleen cells compared to Fd-tet control,[10],lowest degree of binding
same,binding to mouse spleen cells compared to NPC-3TT,[10],only slightly higher than the binding of phage NPC-3TT
Fab clone #2: chicken anti-mouse spleen Fab phage clone selected by BRASIL (protein) CQPAMAAVTLDESGGGLQTPGGALSLVCKASGFTFNSYPMGWVRQAPGKGLEWVAVISSSGTTWYAPAVKGRATISRDNGQSTVRLQLSNLRAED,binding / localization to spleen compared to Fd-tet phage,[9],many-fold increased binding to spleen
same,binding to mouse spleen cells compared to Fd-tet control,[10],at least a two-fold increased binding
same,binding to mouse spleen cells compared to NPC-3TT,[10],highest levels of binding to mouse spleen cells
